# Results taken from article PMC12057046, “Elucidation of short linear motif-based interactions of the MIT and rhodanese domains of the ubiquitin-specific protease 8” (Biology Direct, 2025).
# What was measured:
# USP8 MIT domain = test: Peptide-phage display-based deep mutational scanning (DMS), USP8 MIT domain; type: binding, human; conditions: bait USP8_MIT__P40818_1_142, sheet S3.B_ProP-PD_pairs
# Description: The residues of these 16 amino acid-long wild-type peptides were substituted to all natural amino acid residues, except cysteine, in all positions (Supplementary Table S2A). The designed peptide sequences were reverse-translated to oligonucleotides optimized to the codon usage of E. coli. The required flanking regions (5´[…] and 3´[…]) were added for library construction. The library was generated as previously described.
# Four rounds of phage selections were carried out using the second generation human disorderome library or the constructed deep mutational scanning library. At least three individual replicates were used for each bait protein. 10 µg of GST-tagged proteins or GST control (diluted in PBS from the stock of proteins kept in the purification elution buffer) were immobilized in 100 µL PBS on a 96-well MaxiSorp (Nunc) plate overnight at 4 °C. The plates were incubated with blocking buffer (with 0.5% BSA in PBS) for 1 h at 4 °C followed by washing with 0.05% Tween 20 in PBS four times. The naïve phage library (10^11 CFU) was diluted in 1/5th volume PEG/NaCl (20% PEG-8000, 0.4 M NaCl) and 1X PBS, incubated on ice for 10 min and centrifuged at 10,000 [drawing 3] g for 10 min. The pellet was resuspended in the volume of PBS (100 µL/ well). The GST-coated control plate was incubated with 100 µL library per well in PBS for 1 h at 4 °C to remove non-specific binders. The supernatant was transferred to the target wells and incubated for 2 h at 4 °C. The wells were washed five times with 0.05% Tween 20 in PBS and the bound phages were eluted with 100 µL per well log-phase E. coli OmniMAX by incubating at 37° C while shaking. After 30 min, M13KO7 helper phages were added and incubated for an additional 45 min. The bacterial cultures were transferred to 1 mL 2YT supplemented with 100 µg/mL carbenicillin, 30 µg/mL kanamycin and 0.3 mM IPTG and grew overnight at 37 °C while shaking. The following day the cultures were centrifuged for 10 min at 2,000 [drawing 4] g, 4 °C. 1/10th volume of 10 [drawing 5] PBS was added to adjust the pH and heated at 65 °C for 10 min. The phage pools from each round were used as in-phages for the next round of selections.
# The samples were prepared for NGS as previously described. Peptide-coding regions of the enriched phage pools were amplified and barcoded using Phusion High-Fidelity PCR Master Mix (Thermo Fisher) for 22 cycles and confirmed by 2% agarose gel electrophoresis. The PCR products were normalized with 25 µL Mag-bind Total Pure NGS beads (Omega Biotek) and 10 µL of each eluted sample (Qiagen Elution Buffer) was pooled and cleaned-up with a PCR purification kit (Qiagen). The PCR product was confirmed by 2% agarose electrophoresis and the band was extracted with QIAquick Gel extraction Kit (Qiagen) and eluted with 30 µL TE buffer. The dsDNA was quantified using QuantiT PicoGreen dsDNA Assay Kit (Thermo Fisher) and sent for NGS (Illumina MiSeq v3, 1 × 150 bp read setup, 20% PhiX, NGI SciLifeLab facility, Sweden). The NGS data were demultiplexed, adapter regions were trimmed and sequences with an average quality of at least 20 were translated to peptide sequences. The NGS data were analysed using custom Python scripts. The total read NGS counts for each selection experiment of each peptide sequence were compiled and annotated in PepTools (https://slim.icr.ac.uk/tools/peptools/). Since ProP-PD is in essence a competition assay, the possibility of the input phage library influencing the selection outcome was explored. For this, the Pearson correlation coefficient, p-value and coefficient of determination were calculated for all peptide NGS count fractions in the library coverage vs. in the selections results (Supplementary Fig. S7; Supplementary Table S2B; Supplementary Table S3B; Supplementary Table S7B). Pearson correlation coefficient and p-value were calculated using Python’s SciPy library. […]
# USP8 Rhod domain = target: T1, USP8 Rhod domain (Homo sapiens, UniProt P40818); test: Peptide-phage display-based deep mutational scanning (DMS), USP8 Rhod domain; type: binding; conditions: PSSM, library USP8_DMS, days 2,3
# T1 construct: USP8 Rhod (174–317) (UniProt: P40818); GST (cleaved yes); made in house; host or cells: Escherichia coli BL21-Gold (DE3)
# T1 sequence (P40818 174-317): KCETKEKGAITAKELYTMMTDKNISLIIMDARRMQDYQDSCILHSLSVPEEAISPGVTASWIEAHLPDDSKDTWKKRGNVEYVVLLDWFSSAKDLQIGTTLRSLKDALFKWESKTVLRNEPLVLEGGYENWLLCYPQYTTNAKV
# [1] = EFCAB12 (Q6NXP0) 2-17, pair of mutant with wild-type wt_00016 (MDDDYEAYHSLFLSLL)
# [2] = ratio within the wild-type/mutant pair, larger over smaller averaged fraction (direction from fraction_wt and fraction_mut)
Substance,enrichment_relative_to_wt at position 7 (wt G) (USP8 Rhod domain),proportion of amino acid at position 7 (wt G) (USP8 Rhod domain),hit_pair_ratio (USP8 MIT domain; [1]),further results
ADDDYEAYHSLFLSLL [mut_04321],,,112.64,
AEVSDIESRIAALRAA,,,,hit_pair_ratio (USP8 MIT domain; [2]): 40.88
DDDDYEAYHSLFLSLL [mut_04322],,,1.56,
EDDDYEAYHSLFLSLL [mut_04323],,,6.98,
EEVSDIESRIAALRAA,,,,hit_pair_ratio (USP8 MIT domain; [2]): 7.79
FDDDYEAYHSLFLSLL [mut_04324],,,112.64,
FEVSDIESRIAALRAA,,,,hit_pair_ratio (USP8 MIT domain; [2]): 3.72
GDDDYEAYHSLFLSLL [mut_04325],,,7.04,
HDDDYEAYHSLFLSLL [mut_04326],,,42.37,
IDDDYEAYHSLFLSLL [mut_04327],,,43.89,
"KIAA1614_Q5VZ46_569_584 L15A (MERVLGGLSSPLRLAP; UniProt Q5VZ46 569-584, looked up, variant L15A)",,,,enrichment_relative_to_wt at position 15 (wt L) (USP8 Rhod domain; position 15): -207; proportion of amino acid at position 15 (wt L) (USP8 Rhod domain; position 15): 0.00469

# More lines, main results first:
enrichment_relative_to_wt at position 7 (wt G) (USP8 Rhod domain),proportion of amino acid at position 7 (wt G) (USP8 Rhod domain),Substance,hit_pair_ratio (USP8 MIT domain; [1]),further results
1.36,0.02,"KIAA1614_Q5VZ46_569_584 G7E (MERVLGELSSPLRLLP; UniProt Q5VZ46 569-584, looked up, variant G7E)",,
3,0.0448,"KIAA1614_Q5VZ46_569_584 G7F (MERVLGFLSSPLRLLP; UniProt Q5VZ46 569-584, looked up, variant G7F)",,
-7.58,0.00204,"KIAA1614_Q5VZ46_569_584 G7H (MERVLGHLSSPLRLLP; UniProt Q5VZ46 569-584, looked up, variant G7H)",,
-2.84,0.00545,"KIAA1614_Q5VZ46_569_584 G7I (MERVLGILSSPLRLLP; peptide 569-584; UniProt Q5VZ46 569-584, looked up, variant G7I)",,
-96,0.000161,"KIAA1614_Q5VZ46_569_584 G7K (MERVLGKLSSPLRLLP; peptide 569-584; UniProt Q5VZ46 569-584, looked up, variant G7K)",,
-3,0.00507,"KIAA1614_Q5VZ46_569_584 G7L (MERVLGLLSSPLRLLP; UniProt Q5VZ46 569-584, looked up, variant G575L)",,
1.89,0.03,"KIAA1614_Q5VZ46_569_584 G7Q (MERVLGQLSSPLRLLP; UniProt Q5VZ46 569-584, looked up, variant G7Q)",,
-19,0.000822,"KIAA1614_Q5VZ46_569_584 G7R (MERVLGRLSSPLRLLP; UniProt Q5VZ46 569-584, looked up, variant G7R)",,
-1.8,0.0086,"KIAA1614_Q5VZ46_569_584 G7S (MERVLGSLSSPLRLLP; UniProt Q5VZ46 569-584, looked up, variant G7S)",,
30,0.46,"KIAA1614_Q5VZ46_569_584 G7T (MERVLGTLSSPLRLLP; peptide 569-584; UniProt Q5VZ46 569-584, looked up, variant G7T)",,
-172,8.98e-5,"KIAA1614_Q5VZ46_569_584 G7W (MERVLGWLSSPLRLLP; UniProt Q5VZ46 569-584, looked up, variant G7W)",,
-2,0.00809,"KIAA1614_Q5VZ46_569_584 G7Y (MERVLGYLSSPLRLLP; peptide 569-584; UniProt Q5VZ46 569-584, looked up, variant G7Y)",,
